Experimental data from the nanobody polyreactivity screen of Harvey et al. (2022).

Experiment: yeast display, Sf9 membrane polyspecificity reagent, FACS + sequencing; frameworks hold sequencing errors
Procedure, shortened: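 A synthetic nanobody library was expressed on Saccharomyces cerevisiae BJ5465 by galactose induction for 36–48 hours. The library was stained for 1 hour at 4 °C with 10% biotinylated, detergent-solubilized Sf9 membrane reagent and enriched with streptavidin microbeads before FACS. Low and high (top ~1%) gates were set on anti-HA fluorescence for expression and streptavidin fluorescence for reagent binding, and each polyreactivity label reflects the gate of origin.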

Sequence	polyreactivity (PSR sort gate)
QVQLVESGGGLVQEGGSLRLSCAASGFTFGSYAMGWYRQAPGTERELLAAITTDGSTYYADSVKGRFTISRDNAKNTVYLHMNSLKREDTAVYYCAAGYSYDRYGSDMDYWGQGTQVTVSS	low polyreactivity
QVQLVESAGGVVQAGGSLRKSCAASLGWYRQAPGKERELVATITSDAGTNYADSVKGRFTISRDNAKNTVYLQMNSLKPEDTAVYYCAATPPYRVYGVNYWGQGTQVTVSS	low polyreactivity
QVQLVESGGGLVQAGGSLSLSCAASGSTFGYYARGWYRQAPGKERELVATITIGGYTHYADSVKGRFTISRDNAKNTVYLQMNSLKPEDTAFYYCAKRYYTNRHSRAFGYWGQGTQVTVSS	high polyreactivity
QVQLVESGGGLVQAGGRLRLSCAASGRTLGANAMGWYRQAPGKERELVAAITDSGGSTYYADSVKGRFTISRDNAKNTVYLQMNSLKPEDTAVYYCAAKQAYSSTYVWPIFDYWGQGTQVTVSS	low polyreactivity
QVQLVESGGGLVQAGGSHRLSCAASGSIFRGYAMGWSIQAPGKERELVAAISWRGTSTYYADSVKGRFTISRDNAKNTVYLQMNSLKPEDTAVYYCAADLDGDYYYYGQGNDYWGQGTQVTVSS	low polyreactivity
QVQLVESGGGLVQAGGSLRLSCAASGRIFKSYAMGWYRQSPGKERELVAIIRSSGTTYYADSVKGRFTISRDNAKNTVYLQMNSLKPEDTAVYYCAADPYYWRQFNYDYWGQGTQVTVSS	high polyreactivity
QVQLVESGGGLVQEGGSLRLSCAASGITFDNYDMGWYRQAPGKERELVAAISSDDNTTYADSVKGRFTISRDNAMNTVYFQMNSLKTDDTAVYYCAADYRIYGYLEYDYWGQGTQVTVSS	low polyreactivity
QVQLVESGGGLVQAGGSLRLSCAASGLTFDWYTMGWYRQAPGKERELVATINSGGSTDYADSVKRRFTISRDNAKNTVYLQMNSLKPEDTAVYYCAAQPFVIDGGYRGDYWGQGTQVTVSS	low polyreactivity
QVQLVESGGGLVQAGGSLRLSCAASGFTFGSYAMGWYRQAPGTERELVAAISCSGGSTYYADSVKGRFTISRDNAKNTVYLQMNSLKPEDTAVYYCAVRYPLYRMDYWGQGTQVTVSS	high polyreactivity
QVQLVESGGGLVQAGGSLRLSCAASGRILWSYAMGWYRQAPGKEREFVATINRSGGNTHYADSVKGRFTISRDNAKNTVYLQMNSLKPEDTAVYYCAARNLVPYGYQGLRYYYWGQGTQVTVSS	high polyreactivity
QVQLVESGGGLVQAGGSLRLSCAASGRTFYPYAMGWYRQAPGKERELVAAINRRGGSTYYADSVKGRFTISRDNAKNTVYLQMNSLKPEDTAVYYCAAKTTTPYRYIYYYWGQGTQVTVSS	high polyreactivity
QVQLVESGGGLVQAGGSLRLSCAASGSIFGSNAMGWYRQAPGKERELVAVITNGGRTYYADSVKGRFTISRDNAKNSVYLQMNSLNPEDTAVYYCAASRVYGWYGSYSTYGSWGQGTQVTVSS	high polyreactivity
QVQLVESGGGLVQAGGSLRLSCAASGSTFRAYAMRWYRQAPGKETELVAAISSSGGSTYYADSVKGRFTISRDNAKKTVYLQMNSLKPEDTAVYYCAARGWWSRYGYWGQGTQVTVSS	high polyreactivity
QVQLHESGGGLLQAGGGLRLSCAASGSISSTGFMGWYRQAPGKEREPVAAIAPGTTTYYADSVKGRFTISRDNAKNTVYLQMNSLRPEDTAVYYCAVFTDNRVAFLYWGQGTQVTVSS	low polyreactivity
QVQLVESGGGLVQAGGSLRLSCAASGSIFYVYAMGWYRQAPGNERELVAAINTSGGSTFYADSVKGRFTISRDNAKNTVYLQINSLKPEDTAVYYCAAERYRYRSTDTMGYWGQGTQVTVSS	low polyreactivity
QVQLVESGGGLVQAGGSLRLSCAASGRTFNYYGMGWYRQAPGKERELVAAINSGDNTYYADSVKGRFTISRDNAKNTVYLQMTSLKPEDTAVYYCNTDAFWYYYSWYDYWGQGTQVTVSS	low polyreactivity
QVQLVESGGGLVQAGGSLRLSCAASGFIIPGYAMGWYRQAPGKERELVAAISSGTSTYYEDSVKGRFTISRDNAKNTVYLQMNSLKPEATAVYDCAAETWYRFGYWGQGTQVTVSS	low polyreactivity
QVQLVESGGGLVQAGGSLRLSCAASGGIFSGNDMGWYRQAPGKERELVATITYSGGTTYYADSVKGRFTISRDNAKNTVYLQMNSLKPEDTAVYYCAADEYGPHTFSPEYDSWGQGTQVTVSS	low polyreactivity
QLQLVESGGGLVQAGGSLRLTCAASGSIFNDNAMGWYRPAPVKERELVAPINSDGSTYYADSVKGRFTISRDNAKNTVYLQMNSLKPEDTAVYYCNADTLLDNFTWDADGYDYWGQGTHVTVSS	low polyreactivity
QVQLVESGGVLVQEGGSLRLSCAASGRIFQIYAMGWYRQAPGKERELFAAISGSTSYADSVKGRFTISRDNAKNTVYLQMNSLKPEDTAVYYCAKRVVRGKVDYWGQGTQVTVSS	low polyreactivity
QVQLVESGGGLVQAGGSLRLSCAASGGIFLVYTMGWYRQAPGKEREMVAAITSGGSTKYADSVKGRFTISRDNAKNTVYFQMNSLKPEDTAVYYCAAGVQYARYQARYFYWGQGTPVTVSS	high polyreactivity
QVQLVESGGGLVQAGGSLRLSCAASGLIFSGYAMGWYRQAPGKDRELVAALTRRGSRTYYADSVKGRFTISRDNAKNTVYLQMNSLKPEDTAVYYCAADRFQGRDDYWGQGTQVTVSS	high polyreactivity
QVQLVESGGGLDQAGGSLRLICAASGRIFDVNAMGWYRQAPGKERELVAAISDSGGSTYYADSVKGRFTISRDNAKNTVYLQMNSLKPEDTAVYYCNANTPSLKRSTFNYWGQGTQVTVSS	low polyreactivity
QVQLVESGGGLVQAGGSLRLSCAASGRIFFPNAMGWYRQAPGKERELVAAITSGSSTYYADSVKGRFTISRDNAKNTVYLQMNSLKPEDTAVYYCAARGRRGEAYRSVYYWGQGTQVTVSS	high polyreactivity
QVQLVESGGCLVQAGGSLRLSCAASGRIFQGYAMAWYRQAPGKEREFVAAITLSGGSTYYADSVKGRFTISRDNAKNTVYLQMNSLKPEDTAVYYCNAYYPDEPSLDDYWGQGTQVTVSS	low polyreactivity
QVHLVESGGGLVQAGGSLRLSCAASGRIFTYYAMGWYRQAPGKERELVAAINSRGGRTYYADSVKGRFTISRDNAKNTVYLQMNSLKPEDTAVYYCNKAVYFAWGWGLRDYDYWGQGTQVTVSS	high polyreactivity
QVQLVESGGGLVQAGGSLRLSCAASGITFVANAMGWYRQAPGKETELVAGITQTGGSTYYADSVKGRFTISRDKAKNTVYLQMNSQKPEDTAVYYCAATYRRLRYGKLYYYWGQGTQVTVSS	high polyreactivity
QVQLVESGGGLVQAGGSLRLSCAASGITFTVNSMGWYRQAPAKERELVAAISNDGSTYYADSVKGRFTISRDNAKNSVYLQMNRLKTEDTAVYYCAADTWDVFGPYGYDYWGQGTQVTVSS	low polyreactivity
QVQLVESGGGLVQAGGSLRLSCAASGRTFSVNAMGWYRQAPGKERELVAAISWDGGSTYYADSVKGRFTISRDNAKNTVYLQMNSLKPEDTAVYYCNQDLYYAYDYWGQGTQVTVSS	low polyreactivity
QVQLVESGGGLVQAGGSLRLSCAASGIIFVSYMGWYRQAPGKERELVAAIRWSGGRTYYADAVKGRFTISRDNAKNTVYLQMNSLKPEDTAVYYCNKRVYYSRDVTSRVGRYDFWGQGTQVTVSS	high polyreactivity
